Test results published in patent US20100021421A1 (MCGILL UNIVERSITY, published 2010).
One block for each binder: values may come before it.

How the values were obtained:
[1] = target: T1, recombinant mouse IL-15Ralpha-Fc (mouse), Q60819; test: SPR (BIACORE 3000), rIL-15Rα-Fc amine-coupled to CM5 chip, analyte injected, 1:1 interaction model; rIL-15 as analyte; details: remark: other sources report otherwise
T1 chain: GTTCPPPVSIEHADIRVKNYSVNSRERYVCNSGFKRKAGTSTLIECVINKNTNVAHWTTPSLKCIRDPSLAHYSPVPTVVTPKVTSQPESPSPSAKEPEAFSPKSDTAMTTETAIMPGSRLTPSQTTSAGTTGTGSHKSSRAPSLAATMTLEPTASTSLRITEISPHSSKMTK

[2] = target: T2, recombinant mouse IL-15Ralpha-Fc (mouse, UniProt Q60819 33-205); test: SPR (BIACORE 3000), rIL-15Rα-Fc amine-coupled to CM5 chip, analyte injected, 1:1 interaction model; purified GIFT15 as analyte
T2 construct: Bought from R&D Systems and amine-coupled to a CM5 chip (1300 RU); also called rmIL-15Rα-Fc; rIL-15Rα-Fc; not shown: Fc part of the commercial fusion
T2 sequence (looked up): T1 chain
Experimental: mGIFT15 was purified by immunoaffinity column packed using CNBr-sepharose (Amersham, N.J., USA) according to manufacturer's instructions. The binding interaction between mGIFT15 and rmIL-15Rα-Fc was examined in real-time using a BIACORE 3000 with research-grade CM5 sensor chips (Biacore AB, Uppsala, Sweden). Based on the manufacturer's recommendations, active CM5 surfaces were prepared by immobilizing rIL-15Rα-Fc (10 μg/mL in 10 mM sodium acetate pH 5.0) using the Amine Coupling Kit (Biacore AB) and HBS-M running buffer. Corresponding reference surfaces were prepared in the similar manner in the absence of any ligand. As a positive control, rIL-15 was injected at 50 μL/min (180 sec association+180 sec dissociation) over the reference and amine-coupled rIL-15Rα-Fc surfaces (1300 RU). Regeneration was achieved using two 30 second pulses of HBS-M containing 0.5 M NaCl, 50 mM EDTA, and 0.05% (v/v) TritonX-100 or Empigen. For the test sample, purified mGIFT15 was injected over the same sensor chip surfaces and regenerated in an identical manner. All binding data presented were “double-referenced” and analyzed according to a 1:1 interaction model using BIAevaluation 4.1 (Biacore AB).

Kd [1]: 3 nM
B1: recombinant mouse IL-15, P48346 49-162 (ligand, UniProt P48346 49-162, looked up)
chain: NWIDVRYDLEKIESLIQSIHIDTTLYTDSDFHPSCKVTAMNCFLLELQVILHEYSNMTLNETVRNVLYLANSTLSSNKNVAESGCKECEELEEKTFTEFLQSFIRIVQMFINTS

Kd [2]: 1.4 nM
B2: mouse GM-CSF and IL-15 fusion protein (fusokine) mGIFT15 (ligand)
chain: APTRSPITVTRPWKHVEAIKEALNLLDDMPVTLNEEVEVVSNEFSFKKLTCVQTRLKIFEQGLRGNFTKLKGALNMTASYYQTYCPPTPETDCETQVTTYADFIDSLKTFLTDDPGRRAIMKILKPYMRNTSISCYLCFLLNSHFLTEAGIHVFILGCVSVGLPKTEANWIDVRYDLEKIESLIQSIHIDTTLYTDSDFHPSCKVTAMNCFLLELQVILHEYSNMTLNETVRNVLYLANSTLSSNKNVAESGCKECEELEEKTFTEFLQSFIRIVQMFINTS
notes: also called purified GIFT15; purified mGIFT15
